{
  "source": "patent US20090093061",
  "system": "GroEL having Aspartate 490 substituted with Cysteine, biotinylated and conjugated onto NeutrAvidin beads",
  "data": [
    {"substance": "mitochondrial malate dehydrogenase", "values": [
      {"measurement": "refolding of denatured mMDH (conversion of NADH to NAD+ in the presence of oxaloacetate, OD at 340 nm)", "value": "positive GroEL-490 activity was confirmed by a reduction in OD at 340 nm with respect to the control"}
    ]}
  ]
}
